Measurements as given in paper PMC4020579 (Biochemistry, 2014).
Blank lines part the entries; values can stand above or below the molecule they belong to.

Legend:
[1] = Solubility of RPA32C in crystallization screening; type: physicochemical; conditions: all sparse matrix conditions examined, standard buffer conditions
[2] = molecular target: RPA32_(172–270), the previously reported RPA32C construct of the replication protein A 32 kDa subunit (UniProt P15927 172-270); assay: ITC
[3] = molecular target: RPA32C, the optimized RPA32_(202–270) construct (C-terminal winged-helix domain of the RPA 32 kDa subunit) (UniProt P15927 202-270); assay: NMR titration
Chain of RPA32C, the optimized RPA32_(202–270) construct (C-terminal winged-helix domain of the RPA 32 kDa subunit) (P15927 202-270): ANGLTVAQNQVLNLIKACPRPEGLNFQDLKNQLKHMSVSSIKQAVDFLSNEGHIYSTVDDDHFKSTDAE

Chain of RPA32_(172–270), the previously reported RPA32C construct of the replication protein A 32 kDa subunit (P15927 172-270): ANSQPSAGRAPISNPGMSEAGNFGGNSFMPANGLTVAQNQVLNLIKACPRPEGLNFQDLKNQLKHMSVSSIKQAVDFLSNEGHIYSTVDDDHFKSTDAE

Molecule: RPA32C: optimized C-terminal winged-helix domain construct of the RPA 32 kDa subunit, residues 202–270
concentration at which soluble [1]: ≥ 40000 µg/mL

Kd [2]: 2500 ± 100 nM
B1: SMARCAL1_(1–32), SMARCAL1 residues 1–32 containing the RPA binding motif (RBM) (peptide, UniProt Q9NZC9 1-32, looked up)
chain: MSLPLTEEQRKKIEENRQKALARRAEKLLAEQ

binding result [3]: binds
B2: SMARCAL1_(7–32) peptide (peptide, UniProt Q9NZC9 7-32, looked up)
peptide: EEQRKKIEENRQKALARRAEKLLAEQ
